Data reported in article PMC4528935, “Structures of Pseudomonas aeruginosa β-ketoacyl-(acyl-carrier-protein) synthase II (FabF) and a C164Q mutant provide templates for antibacterial drug discovery and identify a buried potassium ion and a ligand-binding site that is an artefact of the crystal form” (Acta Crystallographica. Section F, Structural Biology …, 2015).

Experiments:
[1] = molecular target: the molecule itself; experiment: crystal structure; apo PaFabF, space group P2_(1), two molecules in the asymmetric unit; 0.2 M MgCl2, 0.1 M Tris-HCl pH 7.0, 10% PEG 8000, 293 K
[2] = molecular target: the molecule itself; experiment: crystal structure; PaFabF-C164Q, space group C222_(1), a dimer in the asymmetric unit; 0.2 M NH4HCO2, 25% PEG 3350, 293 K

Protein	binding result [1]	binding result [2]
Pseudomonas aeruginosa β-ketoacyl-(acyl-carrier-protein) synthase II (FabF) (enzyme, β-ketoacyl-(acyl-carrier-protein) synthase II (FabF) of Pseudomonas aeruginosa, UniProt G3XDA2; the gene was cloned into pNIC28-Bsa4; theoretical mass of a monomer 43 kDa; The models hold 822 residues for two chains (4b7v) and 408 for one chain (4jpf); also called PaFabF; apo PaFabF; source: E. coli BL21(DE3)pLysS, purified (Ni2+ HisTrap, TEV cleavage, second HisTrap, Superdex 200 SEC); not …) MSRRRVVITGMGMLSPLGLDVPSSWEGILAGRSGIAPIEHMDLSAYSTRFGGSVKGFNVEEYLSAKEARKLDLFIQYGLAASFQAVRDSGLEVTDANRERIGVSMGSGIGGLTNIENNCRSLFEQGPRRISPFFVPGSIINMVSGFLSIHLGLQGPNYALTTACTTGTHSIGMAARNIAYGEADVMVAGGSEMAACGLGLGGFGAARALSTRNDEPTRASRPWDRDRDGFVLSDGSGALVLEELEHARARGARIYAELVGFGMSGDAFHMTAPPEDGAGAARCMKNALRDAGLDPRQVDYINAHGTSTPAGDIAEIAAVKSVFGEHAHALSMSSTKSMTGHLLGAAGAVEAIFSVLALRDQVAPPTINLDNPDEGCDLDLVAHEAKPRKIDVALSNSFGFGGTNGTLVFRRFAD	binds	–
PaFabF C164Q mutant (enzyme, β-ketoacyl-(acyl-carrier-protein) synthase II (FabF) of Pseudomonas aeruginosa, UniProt G3XDA2, with Cys164 changed to Gln; same construct in pNIC28-Bsa4 as the wild type; The model holds 824 residues for two chains (4jb6); source: E. coli BL21(DE3)pLysS, purified as the wild type but in phosphate buffer; not shown: His6, N-terminal, cleaved) MSRRRVVITGMGMLSPLGLDVPSSWEGILAGRSGIAPIEHMDLSAYSTRFGGSVKGFNVEEYLSAKEARKLDLFIQYGLAASFQAVRDSGLEVTDANRERIGVSMGSGIGGLTNIENNCRSLFEQGPRRISPFFVPGSIINMVSGFLSIHLGLQGPNYALTTAQTTGTHSIGMAARNIAYGEADVMVAGGSEMAACGLGLGGFGAARALSTRNDEPTRASRPWDRDRDGFVLSDGSGALVLEELEHARARGARIYAELVGFGMSGDAFHMTAPPEDGAGAARCMKNALRDAGLDPRQVDYINAHGTSTPAGDIAEIAAVKSVFGEHAHALSMSSTKSMTGHLLGAAGAVEAIFSVLALRDQVAPPTINLDNPDEGCDLDLVAHEAKPRKIDVALSNSFGFGGTNGTLVFRRFAD	–	binds
